The record followed here is article PMC2625307.

Assay [1] has as its target HIV-1 MN-25 envelope (HIV-1 group M).
In assay [2] the target is HIV-1 MN-8 envelope (HIV-1 group M).
Assay [3] concerns the target HIV-1 NL4.3 envelope (HIV-1 group M).
Assay [4] addresses HIV-1 SUMA d736-68 envelope (HIV-1 group M).
Assay [5] has as its target HIV-1 SUMA d736-73 envelope (HIV-1 group M).
Assay [6] concerns the target HIV-1 WEAU 16-8M envelope (HIV-1 group M).
The target of assay [7] is SIVcpz GAB-1 fl envelope (SIVcpz (P.t.t)) (UniProt P17281).
In assay [8] the target is SIVcpz GAB-2 62 fl envelope (SIVcpz (P.t.t)).
The target in assay [9] is CD4M33. Kind of assay: SPR. (In general: SPR reads the build-up and loss of mass on a sensor chip optically.)
Assay [10] concerns the target CD4M47. As to the kind of experiment: SPR.
Assay [11] concerns the target [Phe^23]M33. Kind of assay: SPR.
The target in assay [12] is [Phe^23]M47. Kind of assay: SPR.

SIVcpz GAB-1 fl envelope (SIVcpz (P.t.t)), sequence (P17281 32-854): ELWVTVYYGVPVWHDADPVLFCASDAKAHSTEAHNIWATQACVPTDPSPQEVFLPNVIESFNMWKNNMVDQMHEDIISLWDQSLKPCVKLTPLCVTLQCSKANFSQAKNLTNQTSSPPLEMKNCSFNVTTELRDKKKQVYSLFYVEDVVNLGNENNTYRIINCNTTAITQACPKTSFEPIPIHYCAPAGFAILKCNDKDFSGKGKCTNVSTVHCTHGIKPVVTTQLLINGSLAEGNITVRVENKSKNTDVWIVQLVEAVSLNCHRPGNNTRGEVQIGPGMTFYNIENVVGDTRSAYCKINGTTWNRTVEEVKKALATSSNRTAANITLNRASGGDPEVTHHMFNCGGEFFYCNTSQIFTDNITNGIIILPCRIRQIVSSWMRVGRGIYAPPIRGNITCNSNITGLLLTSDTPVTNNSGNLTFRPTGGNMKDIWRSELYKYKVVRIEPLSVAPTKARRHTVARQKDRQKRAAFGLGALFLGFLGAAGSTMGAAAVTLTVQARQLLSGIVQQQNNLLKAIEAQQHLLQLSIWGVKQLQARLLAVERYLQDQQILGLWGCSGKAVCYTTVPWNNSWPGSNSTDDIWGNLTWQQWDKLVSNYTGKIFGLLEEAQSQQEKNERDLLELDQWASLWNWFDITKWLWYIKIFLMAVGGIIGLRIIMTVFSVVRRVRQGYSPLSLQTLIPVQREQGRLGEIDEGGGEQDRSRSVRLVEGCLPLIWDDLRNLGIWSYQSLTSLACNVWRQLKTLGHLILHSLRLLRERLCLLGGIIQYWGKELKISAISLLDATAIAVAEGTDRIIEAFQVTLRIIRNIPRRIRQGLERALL

Take CD4M33 (designed binder): the IC50 of neutralisation, HIV-entry assay on JC53BL-13 indicator cells in assay [1] turned out to be 0.35 µM; in [2], 0.034 µM; in [3], 0.005 µM; in [4], 0.004 µM; in assay [5], 0.48 µM; in assay [6] it was 0.085 µM. For the same substance, the IC50 of neutralisation, HIV-entry assay on JC53BL-13 indicator cells was determined as 0.34 µM in [7] and 0.4 µM in assay [8].

Turning to CD4M47 (designed binder), the IC50 of neutralisation, HIV-entry assay on JC53BL-13 indicator cells in assay [1] turned out to be 0.15 µM; in assay [2], 0.011 µM; in assay [3] it was 0.003 µM; in [4], 0.003 µM; in assay [5] it was 0.37 µM; in assay [6], 0.064 µM. For the same substance, the IC50 of neutralisation, HIV-entry assay on JC53BL-13 indicator cells in [7] was 0.15 µM; in assay [8] it was 0.23 µM.

In the case of “YU2 gp120 (from UniProt P35961 32-498) (natural protein)”, the Kd (commonly the concentration at which binding is half-saturated) in assay [9] amounted to 0.0125 µM; in assay [10], 0.00212 µM; in [11] it was 0.0351 µM; in assay [12], 0.00387 µM. In addition, the koff (as a rule, the rate constant with which the complex falls apart) in [9] amounted to 0.00272 s⁻¹; in assay [10], 0.000741 s⁻¹; in assay [11], 0.00475 s⁻¹; in [12], 0.000427 s⁻¹. The kon – broadly, the rate constant with which the complex forms – in [9] amounted to 218000 M⁻¹ s⁻¹; in [10], 349000 M⁻¹ s⁻¹; in assay [11], 135000 M⁻¹ s⁻¹; in [12], 110000 M⁻¹ s⁻¹.

On to [Phe^23]M33 (designed binder), for which the IC50 of neutralisation, HIV-entry assay on JC53BL-13 indicator cells in assay [1] turned out to be 3.6 µM; in assay [2], 0.085 µM; in assay [3], 0.013 µM; in [5], 8.5 µM; in assay [6], 0.13 µM; in assay [7], 0.35 µM. In assay [8], the IC50 of neutralisation, HIV-entry assay on JC53BL-13 indicator cells came to 1 µM.

Consider [Phe^23]M47 (designed binder), for which the IC50 of neutralisation, HIV-entry assay on JC53BL-13 indicator cells in assay [1] worked out at 0.32 µM; in assay [2] it was 0.015 µM; in assay [3] it was 0.004 µM; in [4] it was 0.007 µM; in [5], 0.95 µM; in [6] it was 0.047 µM. Moreover, the IC50 of neutralisation, HIV-entry assay on JC53BL-13 indicator cells in [7] stood at 0.069 µM; in [8], 0.29 µM.
